Data on two proteins can be found in patent US20060259987.

In data set [1] the target is T1, LEAI.472.
T1 chain: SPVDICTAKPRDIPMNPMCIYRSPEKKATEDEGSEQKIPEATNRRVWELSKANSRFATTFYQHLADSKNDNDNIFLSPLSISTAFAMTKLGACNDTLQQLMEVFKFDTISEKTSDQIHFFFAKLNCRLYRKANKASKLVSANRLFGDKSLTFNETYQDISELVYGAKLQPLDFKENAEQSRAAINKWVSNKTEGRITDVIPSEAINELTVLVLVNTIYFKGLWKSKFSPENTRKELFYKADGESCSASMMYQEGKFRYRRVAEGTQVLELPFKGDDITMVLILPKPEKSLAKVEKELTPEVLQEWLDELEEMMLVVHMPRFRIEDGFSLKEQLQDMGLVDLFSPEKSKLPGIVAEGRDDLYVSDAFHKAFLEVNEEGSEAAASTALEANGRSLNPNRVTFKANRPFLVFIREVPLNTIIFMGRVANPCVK

For data set [2], the target named is T2, LEAI.474.
T2 chain: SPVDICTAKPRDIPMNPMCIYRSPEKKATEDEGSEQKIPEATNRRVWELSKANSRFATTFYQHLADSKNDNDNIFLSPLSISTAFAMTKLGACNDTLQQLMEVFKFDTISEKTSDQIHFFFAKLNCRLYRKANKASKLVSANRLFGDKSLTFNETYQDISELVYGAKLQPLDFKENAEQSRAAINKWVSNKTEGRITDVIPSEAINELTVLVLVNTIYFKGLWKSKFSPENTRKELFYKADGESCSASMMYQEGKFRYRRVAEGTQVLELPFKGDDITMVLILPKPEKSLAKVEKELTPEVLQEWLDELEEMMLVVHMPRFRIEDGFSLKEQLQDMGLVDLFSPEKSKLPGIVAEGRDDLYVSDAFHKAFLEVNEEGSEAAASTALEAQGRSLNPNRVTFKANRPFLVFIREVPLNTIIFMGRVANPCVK

For data set [3], the target named is T3, LEAI.480.
T3 chain: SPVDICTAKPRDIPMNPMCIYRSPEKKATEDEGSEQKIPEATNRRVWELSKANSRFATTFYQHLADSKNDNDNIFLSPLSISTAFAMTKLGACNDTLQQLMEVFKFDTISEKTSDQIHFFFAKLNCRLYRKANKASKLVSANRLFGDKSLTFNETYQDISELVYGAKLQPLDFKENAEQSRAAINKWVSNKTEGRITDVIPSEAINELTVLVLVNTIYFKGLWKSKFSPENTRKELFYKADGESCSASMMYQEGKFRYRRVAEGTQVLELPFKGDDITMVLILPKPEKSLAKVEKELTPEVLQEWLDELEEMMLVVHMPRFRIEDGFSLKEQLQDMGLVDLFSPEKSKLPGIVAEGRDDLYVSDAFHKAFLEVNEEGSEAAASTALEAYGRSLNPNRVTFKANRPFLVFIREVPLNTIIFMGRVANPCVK

Data set [4] addresses T4, LEAI.482.
T4 chain: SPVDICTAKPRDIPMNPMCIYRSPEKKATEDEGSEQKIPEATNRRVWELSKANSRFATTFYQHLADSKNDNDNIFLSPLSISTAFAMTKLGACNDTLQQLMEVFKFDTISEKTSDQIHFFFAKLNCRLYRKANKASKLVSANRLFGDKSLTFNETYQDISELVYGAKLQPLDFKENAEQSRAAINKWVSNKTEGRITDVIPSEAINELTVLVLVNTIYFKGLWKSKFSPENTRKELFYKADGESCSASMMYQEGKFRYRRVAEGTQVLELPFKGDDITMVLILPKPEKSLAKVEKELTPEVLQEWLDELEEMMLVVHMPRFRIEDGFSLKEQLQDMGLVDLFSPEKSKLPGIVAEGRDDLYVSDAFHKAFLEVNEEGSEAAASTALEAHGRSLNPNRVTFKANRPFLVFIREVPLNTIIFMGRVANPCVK

Data set [5] has as its target plasma-derived ATIII, P01008.

B1: human neutrophil elastase (protein)
chain: IVGGRRARPHAWPFMVSLQLRGGHFCGATLIAPNFVMSAAHCVANVNVRAVRVVLGAHNLSRREPTRQVFAVQRIFENGYDPVNLLNDIVILQLNGSATINANVQVAQLPAQGRRLGNGVQCLAMGWGLLGRNRGIASVLQELNVTVVTSLCRRSNVCTLVRGRQAGVCFGDSGSPLVCNGLIHGIASFVRGGCASGLYPDAFAPVAQFVNWIDSIIQ
For the protein B1, the Substrate: halflife, min, HNE in data set [1] was 30.1 min; in data set [2], 38.4 min; in data set [3], 19.9 min; in data set [4], 25.3 min; in data set [5] it was 2.9 min. The “halflife HNE/hep as a percentage of plasma ATIII value” in data set [1] was found to be 1038%; in data set [2] it was 1324%; in data set [3], 686%; in data set [4], 872%.

B2: human neutrophil cathepsin G (protein)
chain: IIGGRESRPHSRPYMAYLQIQSPAGQSRCGGFLVREDFVLTAAHCWGSNINVTLGAHNIQRRENTQQHITARRAIRHPQYNQRTIQNDIMLLQLSRRVRRNRNVNPVALPRAQEGLRPGTLCTVAGWGRVSMRRGTDTLREVQLRVQRDRQCLRIFGSYDPRRQICVGDRRERKAAFKGDSGGPLLCNNVAHGIVSYGKSSGVPPEVFTRVSSFLPWIRTTMRS
B2: the Substrate: halflife, min, CatG in data set [1] was 333 min; in data set [2], over 300 min; in data set [3], 35.8 min; in data set [4], over 240 min.
